The source of these data is paper PMC6753139, “TRIM66 reads unmodified H3R2K4 and H3K56ac to respond to DNA damage in embryonic stem cells” (Nature Communications, 2019).

For test [1], the target named is T1, TRIM66-WT965-1160 (Homo sapiens, UniProt O15016).
T1 construct: ITC titration: titrating TRIM66-WT965-1160 with various histone H3 peptides; GST (N, cleaved yes); made in house; host or cells: Escherichia coli BL21 (DE3)
T1 sequence (O15016 1100-1295): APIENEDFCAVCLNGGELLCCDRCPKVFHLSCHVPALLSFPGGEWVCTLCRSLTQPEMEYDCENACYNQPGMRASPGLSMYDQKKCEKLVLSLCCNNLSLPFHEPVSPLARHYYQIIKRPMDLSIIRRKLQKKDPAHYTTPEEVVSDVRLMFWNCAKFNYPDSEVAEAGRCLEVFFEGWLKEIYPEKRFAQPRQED
As to the kind of experiment: ITC, PHD-Bromodomain wild type. The class given is binding. The following applies: for Kd / KD: MicroCal PEAQ-ITC, 20 mM Tris, 100 mM NaCl, error from curve fit, Weak binding = ITC curves cannot be fitted reliably, N.D. = no detectable binding. From the text:
We next performed the glutathione S-transferase (GST) pulldown assays of the TRIM66-WT965-1160 against the calf thymus histones to verify the histone-binding ability of TRIM66 PHD-Bromodomain. […] The PHD of TRIM66 shared a low conservation with those of ING4, PHF2, and BPTF, and lacked the conserved aromatic residues, which were necessary for binding H3K4me2/3[40]–[42] (Supplementary Fig. 2b). Nevertheless, TRIM66 was highly conserved in sequence and structure with the PHDs of TRIM24 and TRIM33 (Fig. 1c and Supplementary Fig. 2b), which were reported to bind H3K4me0[5],[6]; thus, we speculated that the PHD of TRIM66 could bind H3K4me0. To verify this hypothesis, we performed isothermal titration calorimetry (ITC)-based binding assays. […] Based on previous researches reporting the acetyl-lysine binding partners of Bromodomain[3]–[12], we chose a series of related peptides derived from H3 and H4, to test their interactions with TRIM66-WT965-1160 by ITC experiments. […] We further found the acetylated state of K56 was necessary for this binding (Supplementary Fig. 3b).
We next titrated the TRIM66-WT965-1160 with a series of R2-methylated H3 peptides through ITC assays. […] This finding was consistent with the structural observation that each NηH atom of the R2 formed a hydrogen bond with residues in protein (Fig. 2d).
The DNA fragments of human TRIM66_968-1160, TRIM24_824-1006, and TRIM33_882-1087 were amplified from a human bone marrow cDNA library using a PCR-based cloning strategy. The fragments of TRIM66-WT968-1160 were inserted into a pGEX-4T-1 plasmid (GE Healthcare). The fragments of TRIM24_824-1006 and TRIM33_882-1087 were ligated into a pET-SUMO-28a (+) plasmid (Novagen). The DNA fragments of TRIM66-MUT968-1160 and TRIM66-WT965-1160 with codon optimization were synthesized by General Biosystems (sequence was shown in Supplementary Methods) and inserted into a pGEXT-4T-1 plasmid (GE Healthcare). Mutants of TRIM66 PHD-Bromo were generated through PCR using the Mutant Best kit (Takara). The mutation of point mutant based on the codon-optimized DNA sequence of TRIM66-WT965-1160. All constructs were expressed in Escherichia coli BL21 (DE3). The construct of ASF1a1-156 inserted into a pRSFDuet plasmid (courtesy of Ruiming Xu Lab, Institute of Biophysics, Chinese Academy of Sciences) was expressed in E. coli BL21 (DE3) RIL. The construct of full-length H4 inserted into a pET3a plasmid was expressed in E. coli BL21 (DE3). The expression of full-length histone H3K56ac was performed in BL21 (DE3) cells transformed with pBK-AxcKRS3 and pET22b encoding H3 with amber codons at the K56 site[12]. The DNA fragment of full-length TRIM66 was synthesized by General Biosystems and ligated into fugw vector (Addgene). See the information of protein sequence in Supplementary Table 1.
The calorimetric experiments were performed at 25 °C using a MicroCal PEAQ-ITC. The proteins were dialyzed using a buffer containing 20 mM Tris and 100 mM NaCl at pH 7.5. Lyophilized peptides were dissolved in the same buffer and adjusted to pH 7.5 prior to use. Peptide concentrations were estimated from the quantitative NMR experiments[73],[74]. ITC measurements were performed via injection of 0.7–4 mM peptide into a cell containing 0.12 mM TRIM24-PHD-Bromo, 0.05 mM TRIM33 PHD-Bromo, and 0.05 or 0.11–0.15 mM TRIM66-PHD-Bromo (or its mutants). The ITC data were subsequently analyzed using the MicroCal PEAQ-ITC analysis software.
(Isothermal titration calorimetry measures the heat released or taken up as one component is titrated into another.)

Test [2] concerns the target TRIM66-WT_(965-1160) (human) (UniProt O15016). As to the kind of experiment: ITC; 0.7–4 mM peptide injected into a cell with 0.05 or 0.11–[…] TRIM66-PHD-Bromo (or its mutants), 0.12 mM TRIM24-PHD-Bromo or 0.05 mM TRIM33 PHD-Bromo; 25 °C; 20 mM Tris, 100 mM NaCl, pH 7.5; MicroCal PEAQ-ITC; single measurement.
Test [3] addresses TRIM66-WT_(965-1160) (PHD-Bromodomain) (human) (UniProt O15016). As to the kind of experiment: ITC; MicroCal PEAQ-ITC, 25 °C, 20 mM Tris, 100 mM NaCl, pH 7.5; 0.7-4 mM peptide injected into the cell with 0.12 mM TRIM24-PHD-Bromo, 0.05 mM TRIM33 PHD-Bromo, or 0.05 or 0.11-[…] TRIM66-PHD-Bromo (or its mutants); single measurement, errors from the fitting curve.
Test [4] has as its target T2, TRIM33_(882-1087) (PHD-Bromodomain) (human, UniProt Q9UPN9 882-1087).
T2 construct: also called TRIM33 PHD-Bromo; source: E. coli BL21 (DE3), purified (Ni column, SUMO protease, second Ni column, Superdex 75)
T2 sequence (looked up): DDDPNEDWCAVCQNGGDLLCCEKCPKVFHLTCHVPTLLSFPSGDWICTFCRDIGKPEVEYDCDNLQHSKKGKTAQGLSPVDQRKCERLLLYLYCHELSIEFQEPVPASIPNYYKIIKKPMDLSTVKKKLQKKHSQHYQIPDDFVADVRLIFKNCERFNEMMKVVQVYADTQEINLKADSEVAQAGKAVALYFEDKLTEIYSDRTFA
The test is described as follows: ITC; MicroCal PEAQ-ITC, 25 °C, 20 mM Tris, 100 mM NaCl, pH 7.5; 0.7-4 mM peptide injected into the cell with 0.12 mM TRIM24-PHD-Bromo, 0.05 mM TRIM33 PHD-Bromo, or 0.05 or 0.11-0.15 mM TRIM66-PHD-Bromo (or its mutants); single measurement, errors from the fitting curve. Particulars: both partners purified.

Test [5] concerns the target T3, TRIM24_(824-1006) (PHD-Bromodomain) (human, UniProt O15164 824-1006).
T3 construct: TRIM24 PHD-Bromodomain, Homo sapiens, residues 824-1006 of UniProt O15164 (Isoform long); also called TRIM24-PHD-Bromo; source: E. coli BL21 (DE3), purified (Ni column, SUMO protease, second Ni column, Superdex 75)
T3 sequence (looked up): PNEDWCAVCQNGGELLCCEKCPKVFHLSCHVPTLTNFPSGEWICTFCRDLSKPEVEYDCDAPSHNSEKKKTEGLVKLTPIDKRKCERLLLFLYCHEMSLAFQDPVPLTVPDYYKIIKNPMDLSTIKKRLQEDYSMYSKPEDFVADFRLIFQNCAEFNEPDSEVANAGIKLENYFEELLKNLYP
The test is described as above. Particulars: both partners purified.

Test [6] deals with T4, TRIM24_(824-1006) (human, UniProt O15164 824-1006).
T4 construct: TRIM24, human, PHD-Bromodomain, residues 824-1006, amplified from a human bone marrow cDNA library, in pET-SUMO-28a (+); also called TRIM24-PHD-Bromo; TRIM24 PHD-Bromodomain; source: E. coli BL21 (DE3), purified (Ni-chelating column, SUMO protease, second nickel column, Superdex 75)
T4 sequence (looked up): T3 sequence (looked up)
The test is described as follows: ITC; 0.7–4 mM peptide injected into a cell with 0.05 or 0.11–0.15 mM TRIM66-PHD-Bromo (or its mutants), 0.12 mM TRIM24-PHD-Bromo or 0.05 mM TRIM33 PHD-Bromo; 25 °C; 20 mM Tris, 100 mM NaCl, pH 7.5; MicroCal PEAQ-ITC; single measurement. The following applies: both partners purified.

In test [7] the target is T5, TRIM33_(882-1087) (human, UniProt Q9UPN9 882-1087).
T5 construct: also called TRIM33 PHD-Bromo; TRIM33 PHD-Bromodomain; source: E. coli BL21 (DE3), purified (Ni-chelating column, SUMO protease, second nickel column, Superdex 75)
T5 sequence (looked up): T2 sequence (looked up)
Described as above. The following applies: both partners purified.

Setting [8] is: ITC, 25 °C, pH 7.5, single measurement.

Where no end group is shown, it is not given here. [ ]: non-standard residue; d: D form. Arg(Me2a) = CN(C)C(=N)NCCC[C@H](N)C(=O)O; Arg(Me) = CNC(=N)NCCC[C@H](N)C(=O)O

As to “ARTKQTARKSTGGKALREIRRYQK(Ac)S [H3(1-15)-(48-57)K56ac]”, the “binding (in words)” value in test [1] (ITC, 25 °C, pH 7.5) is recorded as “higher affinity than that for the individual peptides”. In test [1] (setting [8]), the “-T△S” value was determined as 6.91 kcal per mol, the “N (stoichiometry)” value was 1.17±0.01 and the “△H” value was -15.5±0.15 kcal per mol. For the same molecule, in test [1] (ratio of KD), the “fold higher affinity than for the H3_1-12 peptide” value came out at 30 fold and the “fold higher affinity than for the H3_48-57K56ac peptide” value is given as 210 fold.
A word on the Kd: it is the concentration at which binding is half-saturated. Low readings indicate higher affinity, high ones lower affinity. As for `CNC(=N)NCCC[C@H](NC(=O)[C@H](C)N)C(=O)N[C@H](C(=O)N[C@@H](CCCCN)C(=O)N[C@@H](CCC(N)=O)C(=O)N[C@H](C(=O)N[C@@H](C)C(=O)N[C@@H](CCCNC(=N)N)C(=O)N[C@@H](CCCCN)C(=O)N[C@@H](CO)C(=O)N[C@H](C(=O)NCC(=O)O)[C@@H](C)O)[C@@H](C)O)[C@@H](C)O` [H3R2me1], binding in test [1] (setting [8]) was put at a Kd of 72.4 ± 3.27 µM.
As a reminder, the stoichiometry N is the number of molecules, sites or subunits per partner or assembly. In turn, “H3_(1-12)R2me1 peptide (from UniProt P68431 2-13)” had a Kd in test [2] of 72.4 µM. In test [3], this molecule gave a stoichiometry N of 0.91.
Regarding `CNCCCC[C@H](NC(=O)[C@@H](NC(=O)[C@H](CCCNC(=N)N)NC(=O)[C@H](C)N)[C@@H](C)O)C(=O)N[C@@H](CCC(N)=O)C(=O)N[C@H](C(=O)N[C@@H](C)C(=O)N[C@@H](CCCNC(=N)N)C(=O)N[C@@H](CCCCN)C(=O)N[C@@H](CO)C(=O)N[C@H](C(=O)NCC(=O)O)[C@@H](C)O)[C@@H](C)O` [H3K4me1], the Kd in test [1] (setting [8]) was 42.8 ± 2.45 µM.
On to H3K4me2: dimethylated H3K4 peptide, for which, in test [1] (setting [8]), the KD entry was “Weak binding”.
As to H3K4me3: trimethylated H3K4 peptide, in test [1] (setting [8]), the KD result was “Weak binding”.
In test [2], “H3_(1-12)K4me1 peptide (from UniProt P68431 2-13)” had a Kd of 42.8 µM. The same molecule came in with a stoichiometry N in test [3] of 1.1.
`C[C@H](N)C(=O)N[C@@H](CCCNC(=N)N(C)C)C(=O)N[C@H](C(=O)N[C@@H](CCCCN)C(=O)N[C@@H](CCC(N)=O)C(=O)N[C@H](C(=O)N[C@@H](C)C(=O)N[C@@H](CCCNC(=N)N)C(=O)N[C@@H](CCCCN)C(=O)N[C@@H](CO)C(=O)N[C@H](C(=O)NCC(=O)O)[C@@H](C)O)[C@@H](C)O)[C@@H](C)O` [H3R2me2a]: binding in test [1] (setting [8]) was put at a Kd of 110 ± 11.9 µM.
The molecule “H3_(1-12)R2me2a peptide (from UniProt P68431 2-13)” registered a Kd in test [2] of 110 µM. In test [3], this molecule had a stoichiometry N of 0.98.
“H3_((1-15)-(48-57))K56ac peptide (from UniProt P68431 2-16; P68431 49-58)” had a Kd in test [2] of 0.52 µM. The stoichiometry N in test [3] is 1.17.

B1: H3_(1-12)R2me1 peptide (peptide, UniProt P68431 2-13, looked up)
peptide: A[Arg(Me)]TKQTARKSTG
notes: histone H3.1, Homo sapiens, residues 1-12; also called H3R2me1; source: synthetic peptide (GL Biochem)
For the molecule B1, the “stoichiometry N” value turned out to be 0.8 in test [4] and 0.93 in test [5].

B2: H3_(1-12)R2me2a peptide (peptide, UniProt P68431 2-13, looked up)
peptide: A[Arg(Me2a)]TKQTARKSTG
notes: histone H3.1, Homo sapiens, residues 1-12; also called H3R2me2a; source: synthetic peptide (GL Biochem)
For B2, the “stoichiometry N” value in test [4] is 1.06; in test [5] it was 0.86.

B3: H3_(1-12)R2me1 peptide (peptide, UniProt P68431 2-13, looked up)
peptide: A[Arg(Me)]TKQTARKSTG
notes: histone H3, residues 1-12; also called H3R2me1; monomethylated H3R2; source: synthetic peptide (GL Biochem, Shanghai)
Consider B3, for which the figures for the Kd in test [6] and in test [7] were 72.7 µM and 5.1 µM, respectively.

B4: H3_(1-12)R2me2a peptide (peptide, UniProt P68431 2-13, looked up)
peptide: A[Arg(Me2a)]TKQTARKSTG
notes: histone H3, residues 1-12; also called H3R2me2a; asymmetrically dimethylated H3R2; source: synthetic peptide (GL Biochem, Shanghai)
Regarding B4, the Kd was found to be 76.8 µM in test [6] and 6.23 µM in test [7].
